Measurements: paper PMC8699916, “Synthesis of Human Bone Morphogenetic Protein-2 (hBMP-2) in E. coli Periplasmic Space: Its Characterization and Preclinical Testing” (Cells, 2021)

Experiments:
[1] = biological target: the molecule itself; assay: non-reducing SDS-PAGE with Western blot; 15% gel, non-reducing conditions, semi-dry transfer to nitrocellulose, anti-hBMP-2 rabbit IgG 1:2000; periplasmic fluid of W3110 grown at 30 °C and 42 °C
[2] = biological target: the molecule itself; assay: non-reducing SDS-PAGE; 15% polyacrylamide gel, non-reducing conditions, Coomassie Brilliant Blue G-250 staining; bought reference preparation

Protein | stoichiometry N [1] | stoichiometry N [2]
periplasmic human bone morphogenetic protein-2 (hBMP-2 Biosintesis) (natural protein, UniProt P12643 283-396, looked up, authentic form without the initial methionine; monomer ~13 kDa, dimer ~26 kDa; also called authentic hBMP-2; our hBMP-2; source: E. coli W3110 with pλPL-DsbA-BMP-2, periplasmic fluid extracted by osmotic shock) QAKHKQRKRLKSSCKRHPLYVDFSDVGWNDWIVAPPGYHAFYCHGECPFPLADHLNSTNHAIVQTLVNSVNSKIPKACCVPTELSAISMLYLDENEKVVLKNYQDMVVEGCGCR | 2 | 
met-hBMP-2 reference preparation from GenScript (natural protein, human, initial methionine typical of the cytoplasmic product, told in words (met-hBMP-2); human bone morphogenetic protein-2; vendor declares dimeric form (~26 kDa); Commercial product; also called hBMP-2 GenScript; GenScript hBMP-2; source: bought: GenScript (cytoplasmic, E. coli-derived)) MQAKHKQRKRLKSSCKRHPLYVDFSDVGWNDWIVAPPGYHAFYCHGECPFPLADHLNSTNHAIVQTLVNSVNSKIPKACCVPTELSAISMLYLDENEKVVLKNYQDMVVEGCGCR |  | 2
